{"source": "the supplement of paper PMC5998384", "key": {"HeLa Kyoto [1]": {"test_system": "HeLa Kyoto", "test": "solubility change mitosis vs G1/S (difference of NP-40 vs SDS log2 ratios) (log2 ratio difference); higher = more soluble in mitosis"}, "HeLa Kyoto [2]": {"test_system": "HeLa Kyoto", "test": "thermal stability score vs G1/S (z-score of summed log2 fold changes over temperatures); higher = more thermally stable than in G1/S"}, "HeLa Kyoto [3]": {"test_system": "HeLa Kyoto", "test": "melting temperature (median over replicates), in situ; higher = more thermally stable"}, "HeLa Kyoto [4]": {"test_system": "HeLa Kyoto", "test": "solubility in G1/S (NP-40 vs SDS abundance) (log2 ratio); higher = more soluble", "conditions": "cell cycle stage: G1/S"}, "[5]": {"conditions": "cell cycle stage: early G1 (4.5 h after nocodazole release)"}}, "data": [{"sequence": "MEDEMPKTLYVGNLSRDVTEALILQLFSQIGPCKNCKMIMDTAGNDPYCFVEFHEHRHAAAALAAMNGRKIMGKEVKVNWATTPSSQKKDTSSSTVVSTQRSQDHFHVFVGDLSPEITTEDIKAAFAPFGRISDARVVKDMATGKSKGYGFVSFFNKWDAENAIQQMGGQWLGGRQIRTNWATRKPPAPKSTYESNTKQLSYDEVVNQSSPSNCTVYCGGVTSGLTEQLMRQTFSPFGQIMEIRVFPDKGYSFVRFNSHESAAHAIVSVNGTTIEGHVVKCYWGKETLDMINPVQQQNQIGYPQPYGQWGQWYGNAQQIGQYMPNGWQVPAYGMYGQAWNQQGFNQTQSSAPWMGPNYGVQPPQGQNGSMLPNQPSGYRVAGYETQ [TIA1]", "values": [{"measurement": "solubility change mitosis (log2)", "setting": "HeLa Kyoto [1]", "result": 0.0786}, {"measurement": "thermal stability score", "setting": "HeLa Kyoto [2]; [5]", "result": -0.653}, {"measurement": "thermal stability score", "setting": "HeLa Kyoto [2]; cell cycle stage: mitosis", "result": -1.44}, {"measurement": "melting temperature", "setting": "HeLa Kyoto [3]; cell cycle stage: G1/S", "result": 53.5, "unit": "°C"}, {"measurement": "melting temperature", "setting": "HeLa Kyoto [3]; cell cycle stage: mitosis", "result": 53, "unit": "°C"}, {"measurement": "solubility in G1/S (log2)", "setting": "HeLa Kyoto [4]", "result": 0.0405}]}, {"sequence": "MAVRALKLLTTLLAVVAAASQAEVESEAGWGMVTPDLLFAEGTAAYARGDWPGVVLSMERALRSRAALRALRLRCRTQCAADFPWELDPDWSPSPAQASGAAALRDLSFFGGLLRRAACLRRCLGPPAAHSLSEEMELEFRKRSPYNYLQVAYFKINKLEKAVAAAHTFFVGNPEHMEMQQNLDYYQTMSGVKEADFKDLETQPHMQEFRLGVRLYSEEQPQEAVPHLEAALQEYFVAYEECRALCEGPYDYDGYNYLEYNADLFQAITDHYIQVLNCKQNCVTELASHPSREKPFEDFLPSHYNYLQFAYYNIGNYTQAVECAKTYLLFFPNDEVMNQNLAYYAAMLGEEHTRSIGPRESAKEYRQRSLLEKELLFFAYDVFGIPFVDPDSWTPEEVIPKRLQEKQKSERETAVRISQEIGNLMKEIETLVEEKTKESLDVSRLTREGGPLLYEGISLTMNSKLLNGSQRVVMDGVISDHECQELQRLTNVAATSGDGYRGQTSPHTPNEKFYGVTVFKALKLGQEGKVPLQSAHLYYNVTEKVRRIMESYFRLDTPLYFSYSHLVCRTAIEEVQAERKDDSHPVHVDNCILNAETLVCVKEPPAYTFRDYSAILYLNGDFDGGNFYFTELDAKTVTAEVQPQCGRAVGFSSGTENPHGVKAVTRGQRCAIALWFTLDPRHSERDRVQADDLVKMLFSPEEMDLSQEQPLDAQQGPPEPAQESLSGSESKPKDEL [P3H1]", "values": [{"measurement": "solubility change mitosis (log2)", "setting": "HeLa Kyoto [1]", "result": -0.0228}, {"measurement": "thermal stability score", "setting": "HeLa Kyoto [2]; [5]", "result": 1.77}, {"measurement": "thermal stability score", "setting": "HeLa Kyoto [2]; cell cycle stage: mitosis", "result": 3.07}, {"measurement": "melting temperature", "setting": "HeLa Kyoto [3]; cell cycle stage: G1/S", "result": 53.2, "unit": "°C"}, {"measurement": "melting temperature", "setting": "HeLa Kyoto [3]; cell cycle stage: mitosis", "result": 54.3, "unit": "°C"}, {"measurement": "solubility in G1/S (log2)", "setting": "HeLa Kyoto [4]", "result": -0.0649}]}, {"sequence": "MDRMTEDALRLNLLKRSLDPADERDDVLAKRLKMEGHEAMERLKMLALLKRKDLANLEVPHELPTKQDGSGVKGYEEKLNGNLRPHGDNRTAGRPGKENINDEPVDMSARRSEPERGRLTPSPDIIVLSDNEASSPRSSSRMEERLKAANLEMFKGKGIEERQQLIKQLRDELRLEEARLVLLKKLRQSQLQKENVVQKTPVVQNAASIVQPSPAHVGQQGLSKLPSRPGAQGVEPQNLRTLQGHSVIRSATNTTLPHMLMSQRVIAPNPAQLQGQRGPPKPGLVRTTTPNMNPAINYQPQSSSSVPCQRTTSSAIYMNLASHIQPGTVNRVSSPLPSPSAMTDAANSQAAAKLALRKQLEKTLLEIPPPKPPAPLLHFLPSAANSEFIYMVGLEEVVQSVIDSQGKSCASLLRVEPFVCAQCRTDFTPHWKQEKNGKILCEQCMTSNQKKALKAEHTNRLKNAFVKALQQEQEIEQRLQQQAALSPTTAPAVSSVSKQETIMRHHTLRQAPQPQSSLQRGIPTSARSMLSNFAQAPQLSVPGGLLGMPGVNIAYLNTGIGGHKGPSLADRQREYLLDMIPPRSISQSISGQK [GATAD2B]", "values": [{"measurement": "solubility change mitosis (log2)", "setting": "HeLa Kyoto [1]", "result": 0.158}, {"measurement": "thermal stability score", "setting": "HeLa Kyoto [2]; [5]", "result": 1.06}, {"measurement": "thermal stability score", "setting": "HeLa Kyoto [2]; cell cycle stage: mitosis", "result": 3.82}, {"measurement": "melting temperature", "setting": "HeLa Kyoto [3]; cell cycle stage: G1/S", "result": 49, "unit": "°C"}, {"measurement": "melting temperature", "setting": "HeLa Kyoto [3]; cell cycle stage: mitosis", "result": 50.6, "unit": "°C"}, {"measurement": "solubility in G1/S (log2)", "setting": "HeLa Kyoto [4]", "result": 0.413}]}, {"sequence": "MAVLLETTLGDVVIDLYTEERPRACLNFLKLCKIKYYNYCLIHNVQRDFIIQTGDPTGTGRGGESIFGQLYGDQASFFEAEKVPRIKHKKKGTVSMVNNGSDQHGSQFLITTGENLDYLDGVHTVFGEVTEGMDIIKKINETFVDKDFVPYQDIRINHTVILDDPFDDPPDLLIPDRSPEPTREQLDSGRIGADEEIDDFKGRSAEEVEEIKAEKEAKTQAILLEMVGDLPDADIKPPENVLFVCKLNPVTTDEDLEIIFSRFGPIRSCEVIRDWKTGESLCYAFIEFEKEEDCEKAFFKMDNVLIDDRRIHVDFSQSVAKVKWKGKGGKYTKSDFKEYEKEQDKPPNLVLKDKVKPKQDTKYDLILDEQAEDSKSSHSHTSKKHKKKTHHCSEEKEDEDYMPIKNTNQDIYREMGFGHYEEEESCWEKQKSEKRDRTQNRSRSRSRERDGHYSNSHKSKYQTDLYERERSKKRDRSRSPKKSKDKEKSKYR [PPIL4]", "values": [{"measurement": "solubility change mitosis (log2)", "setting": "HeLa Kyoto [1]", "result": 0.0472}, {"measurement": "thermal stability score", "setting": "HeLa Kyoto [2]; [5]", "result": 1.3}, {"measurement": "thermal stability score", "setting": "HeLa Kyoto [2]; cell cycle stage: mitosis", "result": 1.99}, {"measurement": "melting temperature", "setting": "HeLa Kyoto [3]; cell cycle stage: G1/S", "result": 49.2, "unit": "°C"}, {"measurement": "melting temperature", "setting": "HeLa Kyoto [3]; cell cycle stage: mitosis", "result": 50.3, "unit": "°C"}, {"measurement": "solubility in G1/S (log2)", "setting": "HeLa Kyoto [4]", "result": -0.23}]}]}
